According to the supplement of paper PMC7125110:
± gives the standard error. For part of these data: Fewer inactive variants are shown than the library holds.

B1: glmS ribozyme (parent)
chain: AUAAAAGCGCCAGAACUACAGAAAUGUAGUUGACGAGGAGGAGGUUUAUCGAAUUUUCGGCGGAUGCCUCCAAA

Columns and labels:
Conditions in all cases: with glucosamine-6-phosphate
glucosamine-6-phosphate [1] = variants of: B1; assay: kcat; higher = faster cleavage; RNA array
Procedure, shortened: (§1)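 Over ~14 h at 37 °C, tiles were imaged as glucosamine-6-phosphate (40 μM to 10 mM) in HEPES/KCl/Mg(OAc)2 buffer flowed across sequenced MiSeq chips. The chips carried barcoded ribozyme variants transcribed in situ by E. coli RNA polymerase and tracked with a hybridised Cy3 probe. After normalisation to baseline and to non-cleaving reference variants, one- or two-exponential decay fits of per-tile medians gave kobs. kcat and KM followed from weighted Michaelis–Menten fits across concentrations.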

glucosamine-6-phosphate [2] = variants of: B1; assay: KM; higher = weaker cofactor use; RNA array
Procedure, shortened: as §1

glucosamine-6-phosphate [3] = variants of: B1; assay: self-cleavage kobs at 640 uM GlcN6P; higher = faster cleavage; RNA array
Procedure, shortened: as §1

glucosamine-6-phosphate [4] = variants of: B1; assay: self-cleavage kobs at 2500 uM GlcN6P; higher = faster cleavage; RNA array
Procedure, shortened: as §1

glucosamine-6-phosphate [5] = variants of: B1; assay: self-cleavage kobs at 10000 uM GlcN6P; higher = faster cleavage; RNA array
Procedure, shortened: as §1

glucosamine-6-phosphate [6] = variants of: B1; assay: self-cleavage kobs at 40 uM GlcN6P; higher = faster cleavage; RNA array
Procedure, shortened: as §1

glucosamine-6-phosphate [7] = variants of: B1; assay: self-cleavage kobs at 160 uM GlcN6P; higher = faster cleavage; RNA array
Procedure, shortened: as §1

Variant	kcat (glucosamine-6-phosphate [1])	KM (glucosamine-6-phosphate [2])	self-cleavage kobs at 640 uM GlcN6P (glucosamine-6-phosphate [3])	self-cleavage kobs at 2500 uM GlcN6P (glucosamine-6-phosphate [4])	self-cleavage kobs at 10000 uM GlcN6P (glucosamine-6-phosphate [5])	self-cleavage kobs at 40 uM GlcN6P (glucosamine-6-phosphate [6])	self-cleavage kobs at 160 uM GlcN6P (glucosamine-6-phosphate [7])
A48C A53G	0.000334 ± 1.5e-05 s⁻¹	2130 ± 190 µM	7.49e-05 ± 1.2e-05 s⁻¹	0.000187 ± 2.9e-05 s⁻¹	0.000272 ± 3.6e-05 s⁻¹	–	–
A48U G51A	1.23e-05 ± 5.9e-06 s⁻¹	–	–	–	< 1e-05 s⁻¹	< 1e-05 s⁻¹	–
U49G U69C	0.000152 ± 6.9e-06 s⁻¹	466 ± 86 µM	8.8e-05 ± 2.4e-05 s⁻¹	0.000131 ± 2.7e-05 s⁻¹	0.00014 ± 3.8e-05 s⁻¹	–	–
A52G U69A	5.52e-05 ± 3e-06 s⁻¹	–	–	5.1e-05 ± 1.7e-05 s⁻¹	5.51e-05 ± 8.5e-06 s⁻¹	–	–
U49G A64G	0.00241 ± 0.00088 s⁻¹	–	0.000414 ± 6.7e-05 s⁻¹	0.000922 ± 0.00016 s⁻¹	0.00232 ± 0.0003 s⁻¹	6.16e-05 ± 1e-05 s⁻¹	0.00015 ± 4.1e-05 s⁻¹
A48U	0.000759 ± 5.7e-05 s⁻¹	2420 ± 350 µM	0.000153 ± 3.5e-06 s⁻¹	0.000432 ± 1e-05 s⁻¹	0.000593 ± 1.1e-05 s⁻¹	< 1e-05 s⁻¹	–
A48C	0.000456 ± 3.9e-05 s⁻¹	2180 ± 390 µM	9.91e-05 ± 2.7e-06 s⁻¹	0.000279 ± 6.6e-06 s⁻¹	0.000362 ± 6.6e-06 s⁻¹	–	2.69e-05 ± 2.4e-06 s⁻¹
A48G	0.000117 ± 1.3e-05 s⁻¹	845 ± 350 µM	4.49e-05 ± 1.5e-06 s⁻¹	0.00011 ± 2.2e-06 s⁻¹	0.000103 ± 1.5e-06 s⁻¹	–	1.61e-05 ± 3.1e-06 s⁻¹
A48G U55C	0.000123 ± 9.6e-06 s⁻¹	458 ± 210 µM	7.4e-05 ± 2.3e-05 s⁻¹	0.000125 ± 2.5e-05 s⁻¹	0.000113 ± 1.3e-05 s⁻¹	–	–
G51U C58G	1.13e-05 ± 4.5e-06 s⁻¹	–	< 1e-05 s⁻¹	–	< 1e-05 s⁻¹	< 1e-05 s⁻¹	–
U47C G51U	< 1e-05 s⁻¹	–	< 1e-05 s⁻¹	–	< 1e-05 s⁻¹	–	–
A52G C68A	2.06e-05 ± 5.7e-06 s⁻¹	–	–	–	–	–	–
C50U C61G	1.39e-05 ± 3.3e-06 s⁻¹	–	–	–	–	–	–
U49G C70G	4.12e-05 ± 2.8e-06 s⁻¹	–	4.22e-05 ± 9e-06 s⁻¹	3.6e-05 ± 8e-06 s⁻¹	4.11e-05 ± 6e-06 s⁻¹	–	3.09e-05 ± 1.3e-05 s⁻¹
G51U U57G	< 1e-05 s⁻¹	–	–	–	< 1e-05 s⁻¹	–	–
G51U C70G	3.09e-05 ± 1.2e-05 s⁻¹	–	5.38e-05 ± 1.4e-05 s⁻¹	4.11e-05 ± 1e-05 s⁻¹	–	–	–
U47G A52G	0.000681 ± 0.00017 s⁻¹	1570 ± 620 µM	0.00017 ± 2.3e-05 s⁻¹	0.000443 ± 6.8e-05 s⁻¹	0.000619 ± 0.00013 s⁻¹	–	8.74e-05 ± 1.5e-05 s⁻¹
U47G A52C	1.4e-05 ± 1.8e-06 s⁻¹	–	–	–	–	–	–

Variant	kcat (glucosamine-6-phosphate [1])	KM (glucosamine-6-phosphate [2])	self-cleavage kobs at 640 uM GlcN6P (glucosamine-6-phosphate [3])	self-cleavage kobs at 2500 uM GlcN6P (glucosamine-6-phosphate [4])	self-cleavage kobs at 10000 uM GlcN6P (glucosamine-6-phosphate [5])	self-cleavage kobs at 40 uM GlcN6P (glucosamine-6-phosphate [6])	self-cleavage kobs at 160 uM GlcN6P (glucosamine-6-phosphate [7])
G51A	1.01e-05 ± 2.8e-07 s⁻¹	965 ± 160 µM	–	–	–	–	–
C50U C58G	1.24e-05 ± 3.2e-06 s⁻¹	–	–	–	–	< 1e-05 s⁻¹	–
C50U G66U C70G	4.59e-05 ± 1.9e-05 s⁻¹	–	–	–	–	–	–
U49A	2.06e-05 ± 1.8e-06 s⁻¹	–	–	2.11e-05 ± 3e-06 s⁻¹	1.9e-05 ± 1.6e-06 s⁻¹	< 1e-05 s⁻¹	–
U49G	0.00147 ± 0.00022 s⁻¹	2840 ± 550 µM	0.000258 ± 7.3e-06 s⁻¹	0.000807 ± 4.3e-05 s⁻¹	0.00113 ± 4.5e-05 s⁻¹	2.57e-05 ± 1.3e-06 s⁻¹	7.59e-05 ± 2.5e-06 s⁻¹
U47C U56C	0.00115 ± 0.00017 s⁻¹	1940 ± 650 µM	0.000323 ± 7.3e-05 s⁻¹	0.00061 ± 0.00012 s⁻¹	0.000972 ± 0.00016 s⁻¹	–	–
U47C U56A	0.00197 ± 0.00092 s⁻¹	–	0.000985 ± 0.00018 s⁻¹	0.00159 ± 0.00039 s⁻¹	0.00143 ± 0.00023 s⁻¹	3.94e-05 ± 9.3e-06 s⁻¹	8.88e-05 ± 1.6e-05 s⁻¹
U47G C70G	0.000127 ± 1.9e-05 s⁻¹	–	0.000101 ± 1.2e-05 s⁻¹	0.000138 ± 1.5e-05 s⁻¹	–	5.74e-05 ± 9e-06 s⁻¹	0.000147 ± 2.1e-05 s⁻¹
A53C A64C	8.21e-05 ± 2.3e-05 s⁻¹	–	–	–	6.96e-05 ± 1.6e-05 s⁻¹	–	–
C50U U57A G59C U65A C70U	2.56e-05 ± 4.5e-06 s⁻¹	293 ± 140 µM	–	–	< 1e-05 s⁻¹	< 1e-05 s⁻¹	–
A48G A53U	6.17e-05 ± 9.3e-06 s⁻¹	–	–	4.65e-05 ± 1.4e-05 s⁻¹	5.16e-05 ± 7.9e-06 s⁻¹	–	–
U47G	0.0175 ± 0.00086 s⁻¹	2130 ± 130 µM	0.00389 ± 0.00017 s⁻¹	0.00997 ± 0.00041 s⁻¹	0.0142 ± 0.00058 s⁻¹	0.000326 ± 7.1e-06 s⁻¹	0.00112 ± 9.8e-05 s⁻¹
A52C C70G	3.19e-05 ± 1.1e-05 s⁻¹	–	3.3e-05 ± 1e-05 s⁻¹	4.57e-05 ± 1.4e-05 s⁻¹	–	–	–
A52C C70A	1.34e-05 ± 4e-06 s⁻¹	–	–	–	–	–	–
A52U C68A	2.14e-05 ± 8.2e-06 s⁻¹	–	–	–	–	–	–
C50U U57A	1.46e-05 ± 7e-07 s⁻¹	397 ± 84 µM	–	–	< 1e-05 s⁻¹	< 1e-05 s⁻¹	–
A53C	0.0162 ± 0.0036 s⁻¹	2870 ± 790 µM	0.00273 ± 6.9e-05 s⁻¹	0.00834 ± 0.0003 s⁻¹	0.0126 ± 0.00041 s⁻¹	0.000261 ± 5.6e-06 s⁻¹	0.000713 ± 2.4e-05 s⁻¹
